Patent US20190202925A1 (OPI VI IP HOLDCO, published 2019)
Numbering of substitutions follows the chain as printed.

Tests used:
soluble human TNFR2 [1] = biological target: T1, soluble human TNFR2 (human, UniProt P20333 23-257); assay: competition ELISA (FIG. 2), plate-bound soluble human TNFR2, constant biotinylated TNFα as competitor
T1 construct: also called soluble TNFR2
T1 sequence (looked up): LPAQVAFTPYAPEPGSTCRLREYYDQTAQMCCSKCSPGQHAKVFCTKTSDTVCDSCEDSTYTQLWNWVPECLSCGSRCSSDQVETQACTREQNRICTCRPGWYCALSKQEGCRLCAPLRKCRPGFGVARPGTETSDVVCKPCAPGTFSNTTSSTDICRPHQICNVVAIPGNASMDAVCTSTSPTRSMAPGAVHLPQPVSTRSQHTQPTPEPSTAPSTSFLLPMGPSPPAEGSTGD
Description: (§1) Soluble human TNFR2 was coated on Nunc-Immuno™ plates. […] IC₅₀ values are reported in nM.

human TNFR2 on cells [2] = biological target: T2, human TNFR2 on cells (human, UniProt P20333 23-461); assay: cell-based or functional assay
T2 sequence (looked up): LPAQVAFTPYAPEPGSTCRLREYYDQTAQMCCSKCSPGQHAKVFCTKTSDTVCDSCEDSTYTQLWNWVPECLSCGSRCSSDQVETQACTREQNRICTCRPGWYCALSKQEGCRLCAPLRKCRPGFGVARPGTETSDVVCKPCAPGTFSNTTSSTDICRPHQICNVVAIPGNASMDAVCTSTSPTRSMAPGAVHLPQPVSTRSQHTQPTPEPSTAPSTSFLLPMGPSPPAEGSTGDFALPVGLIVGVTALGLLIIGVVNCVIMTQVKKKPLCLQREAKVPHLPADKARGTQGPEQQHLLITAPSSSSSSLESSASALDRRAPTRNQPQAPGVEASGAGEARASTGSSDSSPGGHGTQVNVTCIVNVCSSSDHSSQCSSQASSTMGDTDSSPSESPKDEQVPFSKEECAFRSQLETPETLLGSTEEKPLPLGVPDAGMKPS

soluble human TNFR2 [3] = biological target: T1, soluble human TNFR2; assay: competition ELISA: plate-bound soluble TNFR2, antibody titrated against constant biotinylated TNFα, streptavidin-HRP, A450
Description: as §1
(§2) IC₅₀ values are reported in nM.

[4] = biological target: T3, monomeric human TNFR2 extracellular domain (human, UniProt P20333 23-257); assay: BLI (Octet Red 96), antibody captured on Fc biosensor, monomeric TNFR2 ECD in solution, 1:1 model
T3 construct: extracellular domain; Analyte in the Octet experiments; also called human TNFR2 ECD
T3 sequence (looked up): T1 sequence (looked up)
Protocol: (§3) Analysis of binding to the human and cynomolgus TNFR2 ECD was performed using an Octet Red 96 Instrument™ (ForteBio). […] The experiments were performed using five steps: (1) baseline acquisition (60 s); (2) antibody loading on to anti-human or anti-mouse Fc biosensors (120 s); (3) second baseline acquisition (60 s); (4) association of interacting monomeric human or cynomolgus TNFR2 ECD protein for kₒₙ measurement (120 s); and (5) dissociation of interacting monomeric human or cynomolgus TNFR2 ECD for koff measurement (240-3600 s).
(§4) The interacting monomeric human or cynomolgus ECD was used at 5-6 concentrations of a 3-fold concentration series. The data were analyzed using Octet Data Analysis Software 9.0™ (ForteBio) and fit to the 1:1 binding model. The equilibrium dissociation constants (Kd) were calculated by the ratio of […].

[5] = biological target: T4, monomeric cynomolgus TNFR2 extracellular domain (cynomolgus monkey, UniProt A0A2K5VET2 132-366); assay: as above
T4 construct: extracellular domain; Analyte in the Octet experiments; also called cynomolgus TNFR2 ECD; Cyno TNFR2
T4 sequence: T1 sequence (looked up) with S16G, S36P, P117Q, N164H, E210A, S216G, M223V
Protocol: as §3, §4

soluble cynomolgus TNFR2 [6] = biological target: T5, soluble cynomolgus TNFR2 (cynomolgus, UniProt A0A2K5VET2 132-366); assay: competition ELISA: plate-bound soluble cynomolgus TNFR2, competitor biotinylated TNFα; IC50 relative to unlabelled TNFα = 1.00
T5 sequence: T1 sequence (looked up) with S16G, S36P, P117Q, N164H, E210A, S216G, M223V
Protocol: (§5) Soluble human TNFR2 (Sino Biological, 10417-H08H) or cynomolgus TNFR2 (Sino Biological, 90102-C08H) was coated on Nunc-Immuno™ plates at 0.1 μg/ml, 0.5 ug/ml, 1 μg/ml, and 5 μg/ml. […] Plates were developed using TMB and stopped with 3 M HCl.
as §2

human TNFR2 on cells [7] = biological target: T2, human TNFR2 on cells; assay: flow cytometry on human PBMC, antibody at 10 ug/mL, anti-human Fc-PE secondary
Protocol: The following day 0.3×10⁶ PBMC were counted and washed with PBS (Lonza). PBMCs were resuspended in Fixable Viability Stain 575V (BD) diluted 1:1,000 in PBS and incubated for 10 minutes. PBMCs were then washed twice in PBS to remove residual viability stain. PBMCs were then resuspended in Horizon Brilliant Stain Buffer (BD) with 10 uL per test of human Fc receptor binding inhibitor (eBioscience) and incubated on ice for 20 minutes to block Fc receptors. […] PBMCs were incubated 20 minutes on ice and then washed three times with 2% FBS PBS. To visualize TNFR chimeric antibody binding, PBMCs were resuspended in goat anti-human Fc-PE F(ab′)₂ secondary reagent (Jackson ImmunoResearch) diluted 1:200 in 2% FBS PBS and incubated on ice for 20 minutes. Cells were then washed three times in 2% FBS PBS and resuspended in 200 uL 2% FBS PBS for flow cytometry analysis using a BD FACS Celesta instrument and FACS Diva software. T cells were analyzed for chimeric TNFR2 binding by gating on viable cells defined as lymphocytes using forward and side scatter and as T cells by anti-CD3 staining. CD4⁺ and CD8⁺ subsets were identified by commercially available specific antibody conjugates.

soluble human TNFR2 [8] = biological target: T1, soluble human TNFR2; assay: competition ELISA, plate-bound soluble human TNFR2, biotinylated TNFα as competitor
Protocol: as §5, §2

[9] = biological target: T6, cynomolgus TNFR2 on cells (cynomolgus); assay: flow cytometry on cynomolgus PBMC, antibody at 10 ug/mL, anti-human Fc-PE secondary
T6 construct: whole, on cells; also called cynomolgus TNFR2 on CD4+ and CD8+ T cells
Protocol: Cynomolgus peripheral blood mononuclear cells (PBMCs) from two independent donors were isolated by diluting whole blood (SNBL USA) 1:1 in PBS (Lonza), layering over Ficoll-Paque Plus (GE Healthcare), and centrifuging for 35 minutes at 400×g. The PBMC fraction was removed, washed 3 times in 2% FBS PBS and counted. 0.3×10⁶ PBMC were resuspended in Fixable Viability Stain 575V (BD) diluted 1:1000 in PBS and incubated for 10 minutes. PBMC were then washed twice in PBS to remove residual viability stain, resuspended in Horizon Brilliant Stain Buffer (BD) with 10 uL per test of human Fc receptor binding inhibitor (eBioscience), and incubated on ice for 20 minutes to block Fc receptors. […] PBMC were incubated 20 minutes on ice and then washed three times with 2% FBS PBS. To visualize TNFR2 chimeric antibody binding, PBMC were resuspended in goat anti-human Fc-PE F(ab′)₂ secondary reagent (Jackson ImmunoResearch) diluted 1:200 in 2% FBS PBS and incubated on ice for 20 minutes. Cells were then washed three times in 2% FBS PBS and resuspended in 200 uL 2% FBS PBS for flow cytometry analysis using a BD FACS Celesta instrument and FACS Diva software. T cells were analyzed for chimeric TNFR2 binding by gating on viable cells defined as lymphocytes using forward and side scatter and as T cells by anti-CD3 staining. CD4⁺ and CD8⁺ subsets were identified using commercial specific antibody conjugates.

soluble human TNFR2 [10] = biological target: T1, soluble human TNFR2; assay: competition ELISA: plate-bound soluble human TNFR2, competitor biotinylated TNFα; IC50 relative to unlabelled TNFα = 1.00
Protocol: as §5, §2

soluble human TNFR2 [11] = biological target: T1, soluble human TNFR2; assay: competition ELISA: plate-bound soluble human TNFR2, competitor biotinylated TNFα, streptavidin-HRP, A450
Protocol: as §5

soluble cynomolgus TNFR2 [12] = biological target: T5, soluble cynomolgus TNFR2; assay: competition ELISA, plate-bound soluble cynomolgus TNFR2, biotinylated TNFα as competitor
Protocol: as §5, §2

soluble cynomolgus TNFR2 [13] = biological target: T5, soluble cynomolgus TNFR2; assay: competition ELISA: plate-bound soluble cynomolgus TNFR2, competitor biotinylated TNFα, streptavidin-HRP, A450
Protocol: as §5

[14] = biological target: T3, monomeric human TNFR2 extracellular …; assay: BLI (Octet Red 96), Human TNFR2 Kd (1-1)

B1: SBT-001 (antibody, V domains shown)
VH: EVQLQQSGAELVKPGASVKISCKASGYTFTDYNMDWVKQSHGKSLEWIGDINPNYESTSYNQKFKGKATLTVDKSSSTAYMEVRSLTSEDTAVFYCARDKGWYFDVWGAGTTVTVSS
VL: ENVLTQSPAIMSASLGEKVTMSCRASSSVKNMYWYQQKSDASPKLWIYYTSNLAPGVPARFSGSGSGNSYSLTISSMEGEDAATYYCQQFTSSPYTFGGGTKLELK
notes: Parental mouse antibody; also called mouse SBT-001
Soluble human TNFR2 [1]
  IC50: 9.04 nM
Human TNFR2 on cells [2]
  IC50 (µg/mL) (with pre-incubation); rescue of Jurkat H6 cells from 2 ng/mL TNFα, luminescence: 3.03 µg/mL
  IC50 (µg/mL) (without pre-incubation); rescue of Jurkat H6 cells from 2 ng/mL TNFα, luminescence: 2.53 µg/mL
Soluble human TNFR2 [3]
  IC50: 8.27 nM
[4]
  Kd: 2.7 nM
[5]
  Kd: 53.1 nM

B2: chimeric SBT-004b (antibody, human IgG1, V domains shown)
VH: EVQLQQSGPEVGRPGSSVKISCKASGYTFTDYIMHWVKQSPGQGLEWIGWVDPEYGSTDYAEKFKKKATLTADTSSNTAYIQLSSLTSEDTATYFCARDDGSYSPFDYWGQGVMVTVSS
VL: NIVMTQSPKSMSMSVGERVTLTCKASENVVTYVSWYQQKPEQSPKLLIYGASNRYTGVPDRFTGSGSATDFTLTISSVQAEDLADYHCGQGYSYPYTFGGGTKLEIK
notes: Same heavy chain as chSBT-004 (human IgG1 Fc domain); also called chSBT-004b
Soluble cynomolgus TNFR2 [6]
  Relative IC50: 1.57 nM
Human TNFR2 on cells [7]
  % CD4^+ ab^+ Donor 1: 29.3%
  % CD4^+ ab^+ Donor 2: 18.4%
  % CD8^+ ab^+ Donor 1: 9.1%
  % CD8^+ ab^+ Donor 2: 11.4%
Soluble human TNFR2 [8]
  Average Relative IC50: 2.93 nM
[9]
  % CD4^+ ab^+ Donor 1: 8%
  % CD4^+ ab^+ Donor 2: 5.5%
  % CD8^+ ab^+ Donor 1: 9.2%
  % CD8^+ ab^+ Donor 2: 11%
Soluble human TNFR2 [10]
  Relative IC50: 2.33 nM
Soluble human TNFR2 [11]
  IC50: 12.9 nM
Soluble cynomolgus TNFR2 [12]
  Average Relative IC50: 1.56
Soluble cynomolgus TNFR2 [13]
  IC50: 15.1 nM
[4]
  Kd: 2.8 nM
[5]
  Kd: 7.9 nM

B3: SBT-003 (antibody, V domains shown)
VH: QIQLVQSGPELKKPGETVKISCKASGYTFTDYSMHWVKQAPGKGLKWMGWINTETGEPTYADDFKGRFAFSSETSTSTAYLQINNLKNDDTTTYFCATYYGSSYVPDYWGQGTSLTVSS
VL: DIVMTQSHKFMSTSVGDRVSITCKASQNVGTAVAWYQHKPGQSPKLLIYWTSSRHTGVPDRFTGSGSGTEFTLTISNVQSEDLADYFCHQYSDYPYTFGGGTKLEIK
notes: Parental mouse antibody; also called mouse SBT-003
Soluble human TNFR2 [1]
  IC50: 10.5 nM
[14]
  Kd: 1.2 nM
Soluble human TNFR2 [3]
  IC50: 8.5 nM
[4]
  Kd: 1.2 nM
